Blank lines part the entries; values can stand above or below the molecule they belong to.
Experiments:
[1] = biological target: IL-2 receptor beta/gamma (Homo sapiens) (UniProt P14784); details: cited from earlier work
[2] = biological target: human interleukin-2 (recombinant IL-2, Humanzyme) (human, UniProt P60568); experiment: SPR
[3] = biological target: human IL-2 crystallised with the F5111 Fab (human, UniProt P60568); experiment: crystal structure
Chain of human IL-2 crystallised with the F5111 Fab (P60568 21-153): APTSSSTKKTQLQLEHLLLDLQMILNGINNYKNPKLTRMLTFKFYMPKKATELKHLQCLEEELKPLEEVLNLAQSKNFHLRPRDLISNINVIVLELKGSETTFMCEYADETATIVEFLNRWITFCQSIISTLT

Chain of human interleukin-2 (recombinant IL-2, Humanzyme) (P60568 21-153): as above
Chain of IL-2 receptor beta/gamma (Homo sapiens) (P14784 27-240, chain 1 of 2): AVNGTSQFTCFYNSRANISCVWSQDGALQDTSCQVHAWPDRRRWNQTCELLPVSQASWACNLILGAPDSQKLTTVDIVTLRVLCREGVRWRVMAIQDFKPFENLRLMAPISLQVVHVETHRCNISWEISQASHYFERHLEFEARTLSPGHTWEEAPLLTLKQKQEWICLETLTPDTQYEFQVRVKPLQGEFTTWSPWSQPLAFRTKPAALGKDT
Chain of IL-2 receptor beta/gamma (Homo sapiens) (P31785 23-262, chain 2 of 2, further chain): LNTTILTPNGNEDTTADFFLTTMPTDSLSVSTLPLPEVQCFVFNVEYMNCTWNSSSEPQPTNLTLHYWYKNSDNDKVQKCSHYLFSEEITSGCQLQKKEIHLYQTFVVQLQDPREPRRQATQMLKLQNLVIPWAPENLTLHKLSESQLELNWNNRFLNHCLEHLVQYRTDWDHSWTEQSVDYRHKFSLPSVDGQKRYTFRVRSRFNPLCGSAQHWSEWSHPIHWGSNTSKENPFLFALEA

Molecule: IL-2 (from UniProt P60568)
Kd [1]: 1 nM

binding result [2]: binds
B1: F5111, fully human anti-human IL-2 IgG (antibody, V domains shown)
VH: QLQLQESGPGLVKPSQTLSLTCTVSGGSISSGGYYWSWIRQHPGKGLEWIGYIYYSGSTYYNPSLKSRVTISVDTSKNQFSLKLSSVTAADTAVYYCARTPTVTGDWFDPWGRGTLVTVSS
VL: NFMLTQPHSVSESPGKTVTISCTRSSGSIASNYVQWYQQRPGSSPTTVIYEDNQRPSGVPDRFSGSIDSSSNSASLTISGLKTEDEADYYCQSYDSSNVVFGGGTKLTVL

binding result [3]: binds
B2: F5111 Fab (Fab, V domains shown)
VH: QLQLQESGPGLVKPSQTLSLTCTVSGGSISSGGYYWSWIRQHPGKGLEWIGYIYYSGSTYYNPSLKSRVTISVDTSKNQFSLKLSSVTAADTAVYYCARTPTVTGDWFDPWGRGTLVTVSS
VL: NFMLTQPHSVSESPGKTVTISCTRSSGSIASNYVQWYQQRPGSSPTTVIYEDNQRPSGVPDRFSGSIDSSSNSASLTISGLKTEDEADYYCQSYDSSNVVFGGGTKLTVL

Reference: publication PMC6398608 (Nature medicine, 2018)
